# Reference: publication PMC8017132
# Columns and labels:
# [1] = biological target: factor XIIa (UniProt P00748); test: inhibition kinetics (residual protease activity on chromogenic substrate); pseudo-first-order, at least a 10:1 molar ratio of AAT variant to protease (5–75 nM), 37°C, discontinuous method; k2 = kobs divided by the initial AAT variant concentration
# [2] = biological target: thrombin (UniProt P00734); test: as above
# [3] = biological target: activated protein C (UniProt P04070); test: as above
# [4] = biological target: activated coagulation factor XI (UniProt P03951); test: as above
# UniProt P03951, sequence (P03951 19-387, chain 1 of 2): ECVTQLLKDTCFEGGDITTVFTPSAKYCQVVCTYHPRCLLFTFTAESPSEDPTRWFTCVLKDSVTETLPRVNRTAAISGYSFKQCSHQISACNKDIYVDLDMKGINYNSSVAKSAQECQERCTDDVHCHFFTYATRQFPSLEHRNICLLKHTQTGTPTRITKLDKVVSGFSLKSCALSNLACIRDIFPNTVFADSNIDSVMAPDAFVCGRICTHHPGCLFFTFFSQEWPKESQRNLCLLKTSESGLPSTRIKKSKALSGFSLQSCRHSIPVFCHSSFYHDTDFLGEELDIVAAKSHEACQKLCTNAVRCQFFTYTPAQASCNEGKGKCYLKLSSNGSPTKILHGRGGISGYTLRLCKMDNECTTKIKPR
# UniProt P03951, sequence (P03951 388-624, chain 2 of 2): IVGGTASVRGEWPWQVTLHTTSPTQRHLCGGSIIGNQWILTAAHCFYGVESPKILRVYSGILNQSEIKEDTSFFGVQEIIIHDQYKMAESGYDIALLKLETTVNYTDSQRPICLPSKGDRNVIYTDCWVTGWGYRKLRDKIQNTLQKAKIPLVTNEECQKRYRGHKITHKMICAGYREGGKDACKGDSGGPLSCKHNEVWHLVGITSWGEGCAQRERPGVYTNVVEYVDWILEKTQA
# [5] = biological target: activated coagulation factor XI (UniProt P03951); test: stoichiometry of inhibition titration (residual protease activity); varying ratios of AAT variant to protease incubated at ambient temperature for 2 h, residual activity determined at 37°C, line regressed to zero residual activity
substance,measurement,setting,value
alpha-1 antitrypsin M358R (from UniProt P01009 25-418) (natural protein),k2 (second-order rate constant of inhibition),[1],23000 M⁻¹ s⁻¹
same,k2 (second-order rate constant of inhibition),[2],180000 M⁻¹ s⁻¹
same,k2 (second-order rate constant of inhibition),[3],25000 M⁻¹ s⁻¹
same,k2 (second-order rate constant of inhibition),[4],140000 M⁻¹ s⁻¹
same,SI (stoichiometry of inhibition),[5],2.7
